This assay deals with polyclonal rabbit antiserum raised against synthetic rat preptin conjugated to ovalbumin. Briefly: competitive radioimmunoassay, [125I]preptin tracer, antiserum 1:10,000, PEG-assisted second antibody separation.

On to DVSTSQAVLPDDFPRYPVGKFFKFDTWRQSAGRL [synthetic rat preptin], for which the EC20 – broadly, the concentration at which the effect reaches the 20% level – came to 0.344 nM; the concentration for an effect of 80% (EC80) (in general, the point of the concentration-response curve where the effect stands at 80%) was 0.039 nM; the minimum detectable concentration amounted to 11.2 pM.

For the origin of these results see patent publication US20030050434A1.
